Assays:
Settings in all cases: binding Yes/No
mouse α11β1 = mouse α11β1 (Mus musculus, UniProt P61622); test: ELISA binding to recombinant mouse α11β1
Experimental: 0.25 μg/mL of target antigen (recombinant human or mouse α11β1) was plated in a 96-well plate over night at 4° C. Plates were washed (PBS with 0.1% Tween-20), blocked (PBS with 2% BSA and 0.05% Tween-20) for 1 hour at room temperature and incubated with a range of antibody concentrations for 1 hour at room temperature. Subsequently, plates were washed and incubated with biotinylated anti-rabbit/mouse/human IgG in a 1:1000 dilution buffer and incubated for 1 hour at room temperature. After washing the plates, Streptavidin HRP was added at 1:200 in dilution buffer and incubated for 1 hour at room temperature. Ultra TMB ELISA substrate solution was added and the plates incubated for 5 minutes on a plate shaker. The reaction was stopped by adding stop solution to each well and plates were read at 450 nm.

[1] = biological target: T1, α11β1 expressed on the surface of CHO-K1 cells (Homo sapiens, UniProt Q9UKX5); test: FACS antibody binding to CHO-K1 cells expressing human α11
T1 construct: expressed in transfected cells; host or cells: CHO-K1
T1 sequence (Q9UKX5 23-1188): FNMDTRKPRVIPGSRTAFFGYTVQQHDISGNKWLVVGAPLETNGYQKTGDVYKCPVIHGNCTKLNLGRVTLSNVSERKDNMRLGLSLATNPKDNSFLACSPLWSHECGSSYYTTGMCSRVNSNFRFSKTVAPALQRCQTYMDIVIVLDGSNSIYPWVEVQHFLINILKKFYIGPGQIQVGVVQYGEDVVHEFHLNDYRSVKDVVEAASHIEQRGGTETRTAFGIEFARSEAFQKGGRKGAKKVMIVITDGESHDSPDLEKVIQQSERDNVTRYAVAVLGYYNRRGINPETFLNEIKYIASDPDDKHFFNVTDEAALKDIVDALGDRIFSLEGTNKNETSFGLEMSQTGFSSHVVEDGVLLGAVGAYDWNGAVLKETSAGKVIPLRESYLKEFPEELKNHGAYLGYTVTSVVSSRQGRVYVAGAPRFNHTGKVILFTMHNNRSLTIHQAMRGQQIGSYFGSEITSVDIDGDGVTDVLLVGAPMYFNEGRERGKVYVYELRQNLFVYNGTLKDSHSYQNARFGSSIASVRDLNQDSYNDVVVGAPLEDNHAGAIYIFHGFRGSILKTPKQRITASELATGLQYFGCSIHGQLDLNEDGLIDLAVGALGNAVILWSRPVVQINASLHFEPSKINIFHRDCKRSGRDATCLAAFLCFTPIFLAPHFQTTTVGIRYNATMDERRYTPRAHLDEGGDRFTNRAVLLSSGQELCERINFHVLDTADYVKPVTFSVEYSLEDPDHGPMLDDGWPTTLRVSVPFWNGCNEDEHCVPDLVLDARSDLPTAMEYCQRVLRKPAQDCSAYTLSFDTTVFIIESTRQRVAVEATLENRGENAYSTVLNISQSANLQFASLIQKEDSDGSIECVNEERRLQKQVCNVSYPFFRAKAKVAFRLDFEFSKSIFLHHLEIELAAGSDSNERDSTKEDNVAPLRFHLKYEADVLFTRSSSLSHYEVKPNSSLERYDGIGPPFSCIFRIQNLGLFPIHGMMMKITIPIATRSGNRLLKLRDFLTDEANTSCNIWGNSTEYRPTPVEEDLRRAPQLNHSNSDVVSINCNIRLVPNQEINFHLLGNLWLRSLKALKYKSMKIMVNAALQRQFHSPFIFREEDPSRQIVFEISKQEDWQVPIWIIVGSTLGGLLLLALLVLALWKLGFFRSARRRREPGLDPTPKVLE
Experimental: 200,000 cells (wild-type CHO-K1 cells or CHO-K1 cells expressing human α11) were incubated with each antibody at desired concentrations in FACS buffer for 30 min at 4° C. Then, the cells were washed with FACS buffer and incubated with secondary antibody at 1:100 dilution for 30 minutes at 4° C. Cells were then washed and fixed with 1% PFA in PBS for 20 minutes at room temperature; washed again and read on a cytometer in FACS buffer.
Since integrins are large, transmembrane receptors that exist in different conformational shapes, experiments were performed to confirm that the novel antibodies also bound cell-expressed α11β1. A CHO-K1 cell line that endogenously expressed high levels of the β1 subunit was engineered to stably express human α11 (CHO-K1 hu α11).
Binding EC50 was estimated using data from Fluorescence-activated cell sorting (FACS) performed with CHO-K1 hu α11β1 cells.

myofibroblasts (MF) = test: FACS antibody binding to myofibroblasts; design: species or system human
Experimental: Human Pulmonary Fibroblasts (ScienCell) were cultured in complete Fibroblast Growth Medium (ScienCell) until 80% confluent in T-150 flasks. Cells were washed and harvested using Accutase. Cells were seeded into T-150 flasks at 7,500 cells/cm^2 in complete FGF and cultured for 72 hours. Cells were then washed and starved in serum reduced medium for 24 hours. After starvation, cells were treated with TGFβ-1 (R&D Systems) for 72 hours. Cells were harvested using Accutase and seeded in 96-well conical bottom plates. Cells were blocked with Heat Inactived Fetal Bovine Serum (Gibco) for 30 minutes at 4° C. Cells were then incubated with anti-α11 antibodies at the doses described in each figure for 30 minutes at 4° C. A human anti-α11 antibody (Creative BioLabs) was included as a positive control as well as the appropriate IgG isotype negative controls. Cells were washed twice and incubated with PE conjugated secondary antibodies specific to the IgG class of the anti-α11 antibodies being tested for 30 minutes at 4° C. Cells were washed twice and fixed in 1% PFA for 30 minutes. Cells were acquired on a FACS Verse […]. Data were analyzed by gating on single cells and determining the geometric Mean Fluorescence Intensity (gMFI) in the PE channel for each sample.
Binding to a physiologically relevant primary human cell type was also tested. Human pulmonary fibroblasts (HPF) and TGFβ treatment were used to induce a fibroblast-to-myofibroblast transition (FMT), giving rise to myofibroblasts (MF). […] Additionally, HPFs express α11 and α2β1, other collagen binding receptors, which means that HPFs can be to test cross-reactivity of antibodies of interest.

Sequence of mouse α11β1 (P61622 23-1141 limits assumed): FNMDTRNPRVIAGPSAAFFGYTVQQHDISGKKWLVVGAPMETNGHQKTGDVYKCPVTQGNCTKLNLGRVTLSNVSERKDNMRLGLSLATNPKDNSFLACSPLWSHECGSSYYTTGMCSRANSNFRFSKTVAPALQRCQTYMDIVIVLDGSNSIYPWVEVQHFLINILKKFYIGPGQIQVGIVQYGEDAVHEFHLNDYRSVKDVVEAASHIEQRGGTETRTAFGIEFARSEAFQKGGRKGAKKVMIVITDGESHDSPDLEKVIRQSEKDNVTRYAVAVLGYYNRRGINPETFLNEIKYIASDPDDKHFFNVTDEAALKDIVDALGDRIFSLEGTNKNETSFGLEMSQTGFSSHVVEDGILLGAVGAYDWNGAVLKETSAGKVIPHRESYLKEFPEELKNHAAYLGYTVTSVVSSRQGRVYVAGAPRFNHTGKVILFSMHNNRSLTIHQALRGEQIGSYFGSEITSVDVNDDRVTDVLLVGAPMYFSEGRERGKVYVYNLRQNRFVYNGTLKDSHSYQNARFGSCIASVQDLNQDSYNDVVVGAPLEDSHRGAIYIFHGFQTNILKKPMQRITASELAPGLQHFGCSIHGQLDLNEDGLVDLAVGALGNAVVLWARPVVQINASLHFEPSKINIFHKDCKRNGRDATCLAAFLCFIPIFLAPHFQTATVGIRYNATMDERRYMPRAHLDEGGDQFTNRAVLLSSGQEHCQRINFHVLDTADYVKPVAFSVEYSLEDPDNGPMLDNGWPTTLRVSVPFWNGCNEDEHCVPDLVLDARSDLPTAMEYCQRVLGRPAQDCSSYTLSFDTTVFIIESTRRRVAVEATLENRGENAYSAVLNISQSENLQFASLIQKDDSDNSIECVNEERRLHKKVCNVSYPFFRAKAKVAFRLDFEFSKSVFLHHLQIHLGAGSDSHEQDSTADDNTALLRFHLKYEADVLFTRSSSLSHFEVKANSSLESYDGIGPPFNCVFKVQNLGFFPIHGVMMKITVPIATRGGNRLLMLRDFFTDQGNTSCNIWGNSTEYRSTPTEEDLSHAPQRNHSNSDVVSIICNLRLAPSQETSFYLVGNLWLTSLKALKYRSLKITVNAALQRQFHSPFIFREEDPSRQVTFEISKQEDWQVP
Sequence of mouse α11β1 (P09055 21-728 partner limits assumed): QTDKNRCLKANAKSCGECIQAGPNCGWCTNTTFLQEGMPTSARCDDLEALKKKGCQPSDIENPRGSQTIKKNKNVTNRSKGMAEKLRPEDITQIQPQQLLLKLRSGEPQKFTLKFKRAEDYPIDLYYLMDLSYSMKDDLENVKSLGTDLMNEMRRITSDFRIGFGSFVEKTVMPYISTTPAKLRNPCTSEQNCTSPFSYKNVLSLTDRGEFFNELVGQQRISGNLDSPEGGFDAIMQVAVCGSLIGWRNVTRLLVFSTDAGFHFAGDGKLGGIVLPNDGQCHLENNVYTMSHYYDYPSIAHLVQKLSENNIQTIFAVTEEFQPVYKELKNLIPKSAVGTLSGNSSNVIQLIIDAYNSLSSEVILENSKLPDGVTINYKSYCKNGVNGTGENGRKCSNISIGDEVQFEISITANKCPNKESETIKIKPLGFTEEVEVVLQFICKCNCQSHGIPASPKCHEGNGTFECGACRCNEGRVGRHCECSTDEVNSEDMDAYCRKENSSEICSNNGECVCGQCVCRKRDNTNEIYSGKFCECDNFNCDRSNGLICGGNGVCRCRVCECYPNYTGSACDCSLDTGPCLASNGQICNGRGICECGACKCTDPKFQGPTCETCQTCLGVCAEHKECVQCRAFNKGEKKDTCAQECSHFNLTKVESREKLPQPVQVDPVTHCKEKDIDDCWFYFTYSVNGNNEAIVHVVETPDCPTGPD

B1: 7D8B10: rat anti-α11β1 mAb; VH SEQ ID NO: 153, VL SEQ ID NO: 154 (antibody, V domains shown)
VH: MDLRLTYVFIVAILKGVLCEVKLEESGGGLVQPGMSVKLSCATSGFIFSDYWMEWVRQAPGKGLEWVAEIRNKANNYATYYGKSMKGRFTISRDDSKSIVYLQVNSIRSEDTAIYYCAPNFDYWGQGVMVTVSS
VL: MSPVQSLFLLLLWILGTHGDVVLTQTPPTLSATIGQSVSISCRSSQSLLHSTGNTYLNWLLQRPGQPPQLLIYLVSRLESGVPNRFSASGSGTDFTLKISGIEAEDLGVYYCVQSSHTPYTFGTGTKLELK
Murine α11β1 ELISA (mouse α11β1): No | CHO-K1 FACS [1]: Yes | MF FACS (myofibroblasts (MF)): Yes

B2: 6-M8: mouse anti-α11β1 mAb; VH SEQ ID NO: 129, VL SEQ ID NO: 130 (antibody, V domains shown)
VH: QVQLQQPGAELVMPGASVKLSCKASGYTFTNYWMHWVKQRPGQGLEWIGEIDPSDSYTNYNQKFKGKATLTVDKSSSTAYMQLSSLTSEDSAVYYCTRQGSTYAWGQGTSVTVSS
VL: DIVMTQAAFSNPVTLGTSASISCRSSKSLLHSNGITYLYWYLQKPGQSPQLLIYQMSNLASGVPDRFSSSGSGTDFTLRISRVEAEDVGVYYCAQNLELPPTFGGGTKLEIK
Murine α11β1 ELISA (mouse α11β1): No | CHO-K1 FACS [1]: No | MF FACS (myofibroblasts (MF)): No

B3: 6-B21: mouse anti-α11β1 mAb; VH SEQ ID NO: 123, VL SEQ ID NO: 124 (antibody, V domains shown)
VH: EVQLQQSGPELVKPGASVKISCKASGYTFTDYYMNWVKQSHGKSLEWIGDINPHNGGTSFIQKFKGKATLTVDKSSSTAYMELRSLTSEDSAVYYCAPLGRKEGFAYWGQGTLVTVSA
VL: DTVLTQSPASLVVSLGQRATISCRASKSVSTSGYSYMHWYQQKPGQPPKLLIYLASNLESGVPARFSGSGSGTAFTLNIHPVEEEDAATYYCQHSRELPYTFGGGTKLEIK
Murine α11β1 ELISA (mouse α11β1): Yes/Low | CHO-K1 FACS [1]: No | MF FACS (myofibroblasts (MF)): No

B4: 6-O12: mouse anti-α11β1 mAb; VH SEQ ID NO: 117, VL SEQ ID NO: 118 (antibody, V domains shown)
VH: EVKLEESGGGLVQPGGSMKLSCAASGFTFSDAWMDWVRQSPEAGLEWVAEIRNKAHNPATYYAESVKGRFTISRDDSKSSVYLQMNSLRAEDTGIYYCTLVAPDAMDYWGQGTSVTVSS
VL: DIVMSLSPSSLAVSVGEKVTMSCKSSQSLLYSRNQKNYLAWYQQKPGQSPKLLIYWASTRASGVPDRFTGSGSGTDFTLTISSVKAEDLAVYYCQQYYSYPYTFGGGTKLEIK
Murine α11β1 ELISA (mouse α11β1): No | CHO-K1 FACS [1]: No | MF FACS (myofibroblasts (MF)): No

B5: 7-H14: mouse anti-α11β1 mAb; VH SEQ ID NO: 121, VL SEQ ID NO: 122 (antibody, V domains shown)
VH: QVQLQQPGAELVRPGASVKLSCKPSGYTFTSYWMNWVKQRPGQGLEWIGMIDPSDSETHYNQMFKDKATLTVDKSSNTAYMQLSSLTSEDSAVYYCAQIYYAYDKAYWGQGTLVTVSA
VL: DIVMSQSPSSLAVSVGEKVTMSCKSSQSLLYSSHQKNYLAWYQQKPGQSPKLLIYWASTRESGVPDRFTGSGSGTDFSLTISSVKAEDLAVYYCQEYYSWTFGGGTKLEIK
Murine α11β1 ELISA (mouse α11β1): Yes/Low | CHO-K1 FACS [1]: Yes | MF FACS (myofibroblasts (MF)): Yes

B6: 3-G5: mouse anti-α11β1 mAb; VH SEQ ID NO: 135, VL SEQ ID NO: 136 (antibody, V domains shown)
VH: QVQLQQSGAELARPGASVKLSCKASGYTFTSYGISWVKQRTGQGLEWIGEIFPRSSNTYYNEKFKGKATLTADKSSSTVYMEFRSLTSEDSAVYFCAREGGLAWFAYWGQGTLVTVSA
VL: DVVMTQTPLTLSVTIGQPASISCKSSQSLLYTNGNTYLNWLLQRPGQSPKRLIYLVSKLDSGIPDRFSGSGSGTDFTLRISRVEAEDLGVYYCLQSTHFPFTFGSGTKLEIK
Murine α11β1 ELISA (mouse α11β1): Yes/Low | CHO-K1 FACS [1]: No | MF FACS (myofibroblasts (MF)): No

B7: 9-B11: mouse anti-α11β1 mAb; VH SEQ ID NO: 115, VL SEQ ID NO: 116 (antibody, V domains shown)
VH: QVQLQQPGAELVRPGTSVKLSCKASGYTFTSYWMHWVQQRPGQGLEWIGVIDPSDSYTNYNQKFKGKATLTVDTSSSSAYMQLSSLTSEDSAVYYCARDDVAMDYWGQGTSVTVSS
VL: DIVVTQSPASLAVSLGQRATISCRASESVDSYGNSFIHWYQQKPGQPPKLLIYRASNLKSGIPARFSGSGSRTDFTLTINPVEADDVATYYCQQSNEDPYTFGGGTKLEIK
Murine α11β1 ELISA (mouse α11β1): No | CHO-K1 FACS [1]: Yes | MF FACS (myofibroblasts (MF)): Yes

B8: 10-F23: mouse anti-α11β1 mAb; VH SEQ ID NO: 125, VL SEQ ID NO: 126 (antibody, V domains shown)
VH: QVTLKESGPGILQPSQTLSLTCSFSGFSLSTFAMGVGWIRQPSGKGLEWLAHIWWDDDKYYNPALKSRLTISKDTSKNHVFLKIANVDTADTATYYCARMPLTFYFDYWGQGTTLTVSS
VL: DVLLTQTPLSLPVSLGDQASISCRSSQSIVHSNGHTYLEWYLQKPGQSPKLLIYKVSNRFSGVPDRFSGSGSGTDFTLKISRVEAEDLGVYYCFQGSHVPFTFGGGTKLEIK
Murine α11β1 ELISA (mouse α11β1): Yes/Low | CHO-K1 FACS [1]: Yes | MF FACS (myofibroblasts (MF)): Yes

B9: 6-A12: mouse anti-α11β1 mAb; VH SEQ ID NO: 127, VL SEQ ID NO: 128 (antibody, V domains shown)
VH: QVTLKESGPGILQPSQTLSLTCSFSGFSLRTFAMGVGWIRQPSGKGLEWLAHIWWDDDKYYNPALKSRLTISKDTSKNQVFLKIANVDTADTATYYCARMPLTFYFDYWGQGTTLTVSS
VL: DVLMTQTPLSLPVSLGDQASISCRSSQSIVHSNGNTYLEWYLQKPGQSPKLLIYKVSTRFSGVPDRFSGSGSGTDFTLKISRVEAEDLGVYYCFQGSHVPFTFGGGTKLEIK
Murine α11β1 ELISA (mouse α11β1): Yes/Low | CHO-K1 FACS [1]: Yes | MF FACS (myofibroblasts (MF)): Yes

Source: patent publication US12460006B2, “Antibodies against integrin alpha 11 beta 1” (Momenta Pharmaceuticals, Inc., priority 2019, dated 2025)
